Results as given in patent publication US20140010757A1 (Stanford University, published 2014).
No end group written: not given here.

Columns and labels:
[1] = biological target: αvβ3 integrin on cells (U87MG glioblastoma cells; K562-αvβ3 cells) (UniProt P06756); test: competing off binding of ^125I-echistatin (U87MG cells)
[2] = biological target: T1, α5β1 integrin (detergent-solubilized) (UniProt P08648 42-1049; P05556 21-798); test: competition with ^125I-echistatin on plate-coated detergent-solubilized integrin
T1 construct: Coated on microtiter plates; also called integrin α5β1

[3] = biological target: T2, αvβ3 integrin on cells (U87MG glioblastoma cells; K562-αvβ3 cells) (UniProt P06756 31-1048; P05106 27-788); test: competition with ^125I-echistatin on U87MG cells
T2 construct: whole, on cells; also called cell surface αvβ3 integrin

## WT (synthesized Agouti peptide)
[1]
  IC50: 1400 nM

B1: echistatin (unlabeled) (ligand)
chain: QCESGPCCRNCKFLKEGTICKRARGDDMDDYCNGKTCDCPRNPHKGPAT
modifications: ends and bridges not checked; cysteine pairing not given here
[2]
  binding result: binds

B2: ^64Cu-DOTA-7C AgRP engineered peptide (designed binder)
chain: GCVRLHESCLGQQVPCCDPAATCYCYGRGDNDLRCYCR
modifications: ends and bridges not checked; also: DOTA-64Cu label (site not given here)
notes: also called ^64Cu Labeled AgRP loop 4 RDG mutant (peptide 7C); labeled 7C
[3]
  binding result: binds
